From patent US10501502B2, “Allophycocyanin alpha-subunit evolved labeling proteins (smURFPs)” (The Regents of the University of California, priority 2016, dated 2019)

System: primary cortical neurons
Experiment: Rat primary neuronal cultures transduced with smURFP T2A mCherry lentivirus
Format: cell-based
Details: 15 d after transduction
From the text: smURFP-T2A-mCherry (GenBank AY678264), smURFP-T2A-mCardinal, smURFP, and mCardinal (Addgene 51311) were subcloned in a generation-two lentiviral vector with the CMV promoter for constitutive expression. Viruses were produced as described^45. The procedures for extracting cultured neurons from rat pups were approved by the UCSD Institutional Animal Care and Use Committee (IACUC, #503172R) and are consistent with the recommendations of the American Veterinary Medical Association. Primary cortical neurons were dissociated by papain from postnatal day 2 Sprague Dawley rats (n=6) of either sex and combined, plated on poly-D-lysine-coated glass-bottom culture dishes (MatTek, #P35G-0-14-C), and cultured in Neurobasal A medium+1×B27 supplement (Life Technologies)+2 mM GlutaMAX (Life Technologies)+1×penicillin-streptomycin (Fisher Scientific). Prior to fluorescence imaging, 25 μM BV was added for 10 min, removed, and washed with 2×2 ml Hank's Balanced Salt Solution (HBSS, Life Technologies)+2 g/L glucose+20 mM HEPES (pH 7.4), referred to as imaging solution. Fluorescence imaging was performed in vitro 15 d after infection using a Zeiss Axiovert 200M inverted microscope controlled by SlideBook software. FPs were imaged as follows: smURFP and TDsmURFP, EX/EM=628(40)/680(30) nm; and mCherry, EX/EM=580(20)/653(95) nm.

B1: smURFP: small ultra-red fluorescent protein, SEQ ID NO: 13, homodimer, covalently attaches biliverdin (protein)
chain: MKTSEQRVNIATLLTENKKKIVDKASQDLWRRHPDLIAPGGIAFSQRDRALCLRDYGWFLHLITFCLLAGDKGPIESIGLISIREMYNSLGVPVPAMMESIRCLKEASLSLLDEEDANETAPYFDYIIKAMS
modifications: homodimer; biliverdin chromophore; smRUFP Variant Polypeptide
lysosomal aggregation in neuronal culture: not seen
